Tests used:
[1] = system: soluble VEGFR-2; experiment: Soluble VEGFR-2 (sKDR) in conditioned medium (ELISA); type: cell-based, human; conditions: mutant cells; data not shown
[2] = system: MMPs; experiment: Reverse zymography of ECM and CM of transfected PAEKDR cells; type: biochemical; conditions: PAEKDR cells expressing WT or mutant TIMP3
Method: Conditioned medium, cell lysates and ECM fractions from transfected cells were prepared as described previously (Qi et al., 2002). Equal amounts of protein were loaded onto a 12% gel with 1 mg/ml gelatin plus RPE cell-conditioned media, as a source of MMPs, for reverse zymography and processed as described previously (Pavloff et al., 1992).

[3] = system: ERK1 (p44) and ERK2 (p42); experiment: VEGF-stimulated ERK1/2 phosphorylation in transfected PAEKDR cells (Western blot); type: cell-based; conditions: mutant cells; data not shown
Method: Cell fractions or immunoprecipitates of the lysates with the indicated antibodies were subjected to SDS-PAGE. Proteins were detected with either a HRP-conjugated anti-rabbit or anti mouse IgG antibody (Amersham Pharmacia Biotech., Piscataway, N.J.) followed by ECL. The blots were restripped with Western ReProbe™ solution (Genotech) for 30 minutes and reprobed as indicated.
Activation of MAP kinase is a known activated VEGFR-2 downstream signaling event. We measured the phosphorylation of two MAP kinases, ERK1 (p44) and ERK2 (p42) by western blot analysis of membrane fractions in WT and mutant ECs.

[4] = system: PAEKDR cells; experiment: VEGF-stimulated actin reorganization / membrane ruffles; type: cell-based, porcine; conditions: 50 ng/ml VEGF for 15 min
Method: (§1) For immunostaining, subconfluent cells cultured on Falcon cultureslides (BD, Biosciences) were used. For surface KDR detection, cells were fixed in 1% paraformaldehyde for 10 min at 4° C. Following blocking with 1% BSA cells were incubated with anti-extracellular VEGFR-2 monoclonal antibody for 1 h at room temperature. Surface KDR was detected with biotinylated anti-mouse […] (1:1000) and Texas Red avidin D (1:1500) using standard procedures. […] The cells were fixed with 3.7% paraformaldehyde in PBS for 30 min at 4° C. and permeabilized with 0.2 Triton X-100 for 20 min at room temperature. Following rinsing with PBS the cells were incubated with fluorescein isothiocyanate (FITC)-labeled phalloidin in PBS (0.66 μg/ml, Sigma) for 20 min at room temperature washed with PBS and analyzed by fluorescence microscopy.

[5] = target: T1, VEGFR-2 (KDR) (Homo sapiens, UniProt P35968); experiment: [125I]VEGF binding in transfected PAEKDR cell lines; conditions: PAEKDR cells expressing mutant TIMP3 vs vector
T1 construct: To determine whether these receptor isoforms represent full-length VEGFR-2; expressed in transfected cells; host or cells: porcine aortic endothelial (PAE) cells
Method: PAEKDR cells were transfected with TIMP3 cDNA or empty vector using Lipofectamine reagent (Gibco-BRL Rockville, Md.). Stable clones were isolated using Hygromycin selection.
After washing, the cell monolayers were solubilized with lysis buffer (20 mM Tris HCl pH 7.5, 1% triton X 100 and 10% glycerol), and the radioactivity measured in a gamma counter.

[6] = system: surface KDR; experiment: Surface KDR immunofluorescence staining; type: cell-based; conditions: clone KDR-2 antibody; data not shown
Method: as §1

[7] = target: T2, KDR (Homo sapiens, UniProt P35968); experiment: VEGF-stimulated KDR tyrosine phosphorylation in membrane fractions (Western blot); type: cell-based; conditions: mutant cells; data not shown
T2 construct: To determine whether these receptor isoforms represent full-length VEGFR-2; expressed in transfected cells; host or cells: porcine aortic endothelial (PAE) cells
Method: 2 day serum free conditioned medium (CM) was collected from subconfluent cells cultured on six-well plates (Costar). In some cases the CM was further concentrated with heparin-agarose gels (Bio-rad). The cell monolayer was dislodged from the culture plates following a 10 min incubation in Ca2+, Mg2+ free phosphate buffered saline (PBS) containing 2.5 mM EDTA. After several rinses in PBS and water, the ECM was scraped in a small volume of electrophoresis sample buffer without reducing agent for analyses. Plasma membrane (PM) fractions were prepared from cells centrifuged at 500 g and 4° C. for 5 min The supernatant was discarded and the cell pellets were resuspended in PBS containing protease inhibitors, lysed with a 26-gauge syringe needle, and centrifuged at 3,000 g at 4° C. for 15 minutes. The supernatant was centrifuged at […] at 4° C. for 1 hr. The PM pellets were suspended in lysis buffer containing protease inhibitors. In some instances the membrane fraction of cells was prepared using ProteoExtract Subcellular Proteome Extaction Kit (EMD Biosciences, Inc).
Cell fractions or immunoprecipitates of the lysates with the indicated antibodies were subjected to SDS-PAGE. Proteins were detected with either a HRP-conjugated anti-rabbit or anti mouse IgG antibody (Amersham Pharmacia Biotech., Piscataway, N.J.) followed by ECL. […]

[8] = system: PAEKDR cells; experiment: VEGF-stimulated migration (modified Boyden chamber) of transfected PAEKDR cells; type: cell-based, porcine; conditions: VEGF 50 ng/ml
Method: A modified Boyden chamber assay was carried out as described previously 34. Briefly, 8.0 μm pore PVPF polycarbonate membranes were pre-coated with 100 μg/ml collagen type I in 0.2 N acetic acid (Cohesion technologies, INC. Pala Alto, Calif.). […] Chamber was then incubated for 4 hrs at 37° C. in a 5% CO2 humidified incubator. Cells remaining on the top of the filter were removed. Cells on the bottom surface of the filter were fixed, stained and mounted. The number of migrating cells per well was counted microscopically.

[9] = system: PAEKDR cells; experiment: Tube formation assay in type 1 collagen gels; type: cell-based, porcine; conditions: 50 ng/ml VEGF; three-dimensional collagen gels
Method: Type 1 collagen was mixed with 10×DMEM and 0.1 M NaOH (8:1:1), adjusted to a solution containing 10 μg/ml growth factor reduced matrigel matrix (BD, Biosciences), and then distributed in 48-well dishes. […] After 4 h of incubation at 37° C., a second layer of collagen was added, and cultures were kept under the same conditions as above described. Tube formation was examined using a phase-contrast microscopy at the indicated time points.

T1 sequence (P35968 20-1356): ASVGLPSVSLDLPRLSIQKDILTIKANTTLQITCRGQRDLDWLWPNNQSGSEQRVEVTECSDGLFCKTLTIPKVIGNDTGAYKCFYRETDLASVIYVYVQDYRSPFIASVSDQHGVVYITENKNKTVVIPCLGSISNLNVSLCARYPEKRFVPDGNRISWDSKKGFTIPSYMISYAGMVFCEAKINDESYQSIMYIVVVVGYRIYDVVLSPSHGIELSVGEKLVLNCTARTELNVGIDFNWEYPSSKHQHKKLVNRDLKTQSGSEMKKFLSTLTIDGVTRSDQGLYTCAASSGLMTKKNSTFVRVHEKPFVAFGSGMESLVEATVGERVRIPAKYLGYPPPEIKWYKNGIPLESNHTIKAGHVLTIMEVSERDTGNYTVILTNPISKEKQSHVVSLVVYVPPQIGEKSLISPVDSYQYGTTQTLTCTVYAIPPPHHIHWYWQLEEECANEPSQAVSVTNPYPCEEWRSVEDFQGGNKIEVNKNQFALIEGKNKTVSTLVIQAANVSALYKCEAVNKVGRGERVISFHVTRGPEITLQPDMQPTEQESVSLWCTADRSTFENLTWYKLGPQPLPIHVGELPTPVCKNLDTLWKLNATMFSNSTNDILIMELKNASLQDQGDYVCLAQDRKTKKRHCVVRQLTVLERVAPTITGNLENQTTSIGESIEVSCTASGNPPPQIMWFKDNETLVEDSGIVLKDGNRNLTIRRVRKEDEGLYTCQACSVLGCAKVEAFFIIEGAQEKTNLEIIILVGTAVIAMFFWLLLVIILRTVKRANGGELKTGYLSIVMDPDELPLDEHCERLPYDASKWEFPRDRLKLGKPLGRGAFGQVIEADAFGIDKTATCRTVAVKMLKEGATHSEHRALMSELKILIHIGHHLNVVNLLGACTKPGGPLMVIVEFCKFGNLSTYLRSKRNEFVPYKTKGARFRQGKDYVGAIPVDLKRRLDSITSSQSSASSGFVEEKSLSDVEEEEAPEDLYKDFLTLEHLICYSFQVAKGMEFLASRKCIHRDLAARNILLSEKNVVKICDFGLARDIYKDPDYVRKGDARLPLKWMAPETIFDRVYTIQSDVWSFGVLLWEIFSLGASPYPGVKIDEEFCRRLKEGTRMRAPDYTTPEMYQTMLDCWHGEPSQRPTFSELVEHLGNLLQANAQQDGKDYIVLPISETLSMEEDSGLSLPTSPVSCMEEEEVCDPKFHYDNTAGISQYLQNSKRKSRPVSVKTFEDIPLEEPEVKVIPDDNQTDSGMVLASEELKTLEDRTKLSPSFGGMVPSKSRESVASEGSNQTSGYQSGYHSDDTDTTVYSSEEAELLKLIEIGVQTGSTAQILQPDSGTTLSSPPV
T2 sequence (P35968 20-1356): as above

B1: mutant TIMP3: Sorsby fundus dystrophy-related S156C mutant TIMP3 expressed in PAEKDR endothelial cells (protein)
chain: CTCSPSHPQDAFCNSDIVIRAKVVGKKLVKEGPFGTLVYTIKQMKMYRGFTKMPHVQYIHTEASESLCGLKLEVNKYQYLLTGRVYDGKMYTGLCNFVERWDQLTLSQRKGLNYRYHLGCNCKIKSCYYLPCFVTSKNECLWTDMLSNFGYPGYQCKHYACIRQKGGYCSWYRGWAPPDKSIINATDP
cleaved sVEGFR-2 in the CM, more than mock cells [1]: 7- to 8 fold | MMP inhibitory activity in ECM and CM (reverse zymography) [2]: minimal MMP inhibitory activity | increase of VEGF-stimulated ERK1/2 phosphorylation [3]: 2-3 fold | VEGF-stimulated formation of membrane ruffles [4]: a majority of mutant cells showed more striking edge ruffles | increase in [125I] VEGF binding [5]: 2-3 fold | surface KDR labeling relative to empty vector or WT-TIMP3 cells [6]: increased fluorescent labeling for surface KDR | level of phosphorylated KDR after VEGF stimulation vs mock cells [7]: ~2 fold | VEGF-stimulated migration of cells expressing TIMP3 variant [8]: accentuated migratory response towards VEGF | VEGF-stimulated tube formation [9]: forming extensive tubular networks, but by day 5 the tubular structures started to regress and collapse
